Assay results from patent US20230213527A1 (QUANTUM SI, published 2023).
Each block holds one binder with its values, some of them ahead of it. Square brackets hold non-standard residues; d marks the D form. Ends that are not written are not given here. Cit = NC(=O)NCCC[C@H](N)C(=O)O

Assays:
[1] = biological target: T1, QP1073, citrullinated vimentin peptide fragment VCitFLEQQNK (SEQ ID NO: 842), state with N-terminal leucine …; test: single-molecule on-chip sequencing of QP1073 with PS610, PS1220 and PS1223; bin ratio v. pulse duration plot
T1 construct: State after aminopeptidase cleavage
T1 peptide: LEQQNK
Procedure: (§1) Sequencing reactions using the recognizers PS610 (FYW), PS1220 (R), and PS1223 (LIV) were performed separately for the QP706 and QP1073 peptide fragments. Each recognizer was labeled with a unique dye and/or unique number of dyes. A scatter plot of bin ratio v. pulse duration is shown for the QP706 peptide fragment in FIG. 18A and for the QP1073 peptide fragment in FIG. 18B. In the plot of FIG. 18A, three clusters corresponding to FLE, LEQ, and RFL segments are visible. […] In the plot of FIG. 18B, two clusters corresponding to FLE and LEQ segments are visible, but there is no cluster corresponding to RFL.

[2] = biological target: T2, QP1032, IRLAFAYPDDDK (SEQ ID NO: 849); test: single-molecule on-chip sequencing; recognition of the N-terminal amino acid
T2 peptide: IRLAFAYPDDDK
Procedure: (§2) In this example, sequencing reactions were conducted for 4 pairs of unmodified and citrullinated peptides: QP1028 & QP1029, QP1030 & QP1031, QP1032 & QP1033, and QP707 & QP789. […] For the QP1028 & QP1029 and QP1030 & QP1031 pairs, sequencing reactions were conducted using the PS610 (FYW) recognizer. For the QP1032 & QP1033 and QP707 & QP789 pairs, sequencing reactions were conducted using the PS1223 (LIV) recognizer.

[3] = biological target: T3, QP707, LRLAFAYPDDDK (SEQ ID NO: 817) (not fully specified (C-terminus); also: surface-immobilized through C-terminal linker); test: as above
T3 construct: Intact peptide, N-terminal leucine; surface-immobilized through a C-terminal linker
T3 peptide: LRLAFAYPDDDK
Procedure: as §2

[4] = biological target: T4, QP1033, ICitLAFAYPDDDK (SEQ ID NO: 850) (also: C-terminal azidolysine (general statement for all synthetic peptides)); test: as above
T4 peptide: I[Cit]LAFAYPDDDK-NH2
Procedure: as §2

[5] = biological target: T5, QP789, LCitLAFAYPDDDK (SEQ ID NO: 839) (also: C-terminal azidolysine (general statement for all synthetic peptides)); test: as above
T5 construct: Intact peptide, N-terminal leucine
T5 peptide: L[Cit]LAFAYPDDDK-NH2
Procedure: as §2

[6] = biological target: T6, QP706, vimentin peptide fragment … (SEQ ID NO: 841), state with N-terminal leucine (LEQQNK); test: single-molecule on-chip sequencing of QP706 with PS610, PS1220 and PS1223; LEQ cluster in bin ratio v. pulse duration plot
T6 construct: residue range inferred from the printed segment
T6 peptide: LEQQNK
Procedure: as §1

[7] = biological target: T7, QP706, vimentin peptide fragment … (SEQ ID NO: 841), state with N-terminal arginine (RFLEQQNK); test: single-molecule on-chip sequencing of QP706 with PS610, PS1220 and PS1223; RFL cluster in bin ratio v. pulse duration plot
T7 construct: residue range inferred from the printed segment
T7 peptide: RFLEQQNK
Procedure: as §1

[8] = biological target: T8, QP1073, citrullinated vimentin peptide fragment VCitFLEQQNK (SEQ ID NO: 842), state with N-terminal …; test: single-molecule on-chip dynamic sequencing; bin ratio v. pulse duration clusters
T8 construct: residue range inferred
T8 peptide: [Cit]FLEQQNK
Procedure: as §1

[9] = biological target: T9, … (SEQ ID NO: 836), state with N-terminal SDMA (human, symmetric dimethylarginine (SDMA) at position 2 of SEQ ID NO: 836 (N-terminal residue of this state); conjugated C-terminally to a macromolecular linker); test: single-molecule on-chip dynamic sequencing
T9 construct: residue range inferred

[10] = biological target: T10, QP789, LCitLAFAYPDDDK (SEQ ID NO: 839), state with N-terminal citrulline (CitLAFAYPDDDK); test: single-molecule on-chip dynamic sequencing
T10 construct: residue range inferred
T10 peptide: [Cit]LAFAYPDDDK

[11] = biological target: T11, QP943, … (SEQ ID NO: 925), state with N-terminal arginine; test: single-molecule on-chip sequencing with PS621, PS610 and PS961; average of 10 sequencing reactions
T11 construct: State after aminopeptidase cleavage of the N-terminal leucine; residue range inferred; also called R-X peptide, X = V
T11 peptide: RVAFAYPDDDK

[12] = biological target: T12, QP747, … (SEQ ID NO: 917), state with N-terminal arginine; test: as above
T12 construct: State after aminopeptidase cleavage of the N-terminal leucine; residue range inferred; also called R-X peptide, X = A
T12 peptide: RAAFAYPDDDK

[13] = biological target: T13, QP707, … (SEQ ID NO: 817), state with N-terminal arginine (RLAFAYPDDDK); test: as above
T13 construct: residue range inferred from the recognized N-terminal residue; also called R-X peptide, X = L
T13 peptide: RLAFAYPDDDK

[14] = biological target: T14, QP941, … (SEQ ID NO: 923), state with N-terminal arginine; test: as above
T14 construct: State after aminopeptidase cleavage of the N-terminal leucine; residue range inferred; also called R-X peptide, X = Q
T14 peptide: RQAFAYPDDDK

[15] = biological target: T15, QP938, … (SEQ ID NO: 919), state with N-terminal arginine; test: as above
T15 construct: State after aminopeptidase cleavage of the N-terminal leucine; residue range inferred; also called R-X peptide, X = E
T15 peptide: REAFAYPDDDK

[16] = biological target: T16, QP748, … (SEQ ID NO: 915), state with N-terminal arginine; test: as above
T16 construct: State after aminopeptidase cleavage of the N-terminal leucine; residue range inferred; also called R-X peptide, X = S
T16 peptide: RSAFAYPDDDK

[17] = biological target: T17, QP749, … (SEQ ID NO: 911), state with N-terminal arginine; test: as above
T17 construct: State after aminopeptidase cleavage of the N-terminal leucine; residue range inferred; also called R-X peptide, X = I
T17 peptide: RIAFAYPDDDK

[18] = biological target: T18, QP942, … (SEQ ID NO: 921), state with N-terminal arginine; test: as above
T18 construct: State after aminopeptidase cleavage of the N-terminal leucine; residue range inferred; also called R-X peptide, X = T
T18 peptide: RTAFAYPDDDK

[19] = biological target: T19, QP746, … (SEQ ID NO: 913), state with N-terminal arginine; test: as above
T19 construct: State after aminopeptidase cleavage of the N-terminal leucine; residue range inferred; also called R-X peptide, X = Y
T19 peptide: RYAFAYPDDDK

[20] = biological target: T11, QP943, … (SEQ ID NO: 925), state with …; test: cell-based or functional assay
[21] = biological target: T13, QP707, … (SEQ ID NO: 817), state with …; test: cell-based or functional assay
[22] = biological target: T17, QP749, … (SEQ ID NO: 911), state with …; test: cell-based or functional assay
[23] = biological target: T19, QP746, … (SEQ ID NO: 913), state with …; test: cell-based or functional assay

binding result [1]: binds
Pulse Width [2]: 0.58 s
Pulse Width [3]: 0.42 s
Pulse Width [4]: 0.84 s
Pulse Width [5]: 0.92 s
binding result [6]: binds
B1: PS1223 (designed binder)
chain: MPTAASATESAIEDTPAPARPEVDGRTKPKRQPRYHVVLWDDDDHTYQYVVVMLRSLFGHPPSRGYRMAKEMDTQGRVIVLTTTREHAELKRDQIHAFGRDRLLARSKGSMKASIEAEEGSAGSAAGSGEFGSAGSAAGSGEFGSAGSAAGSGEFMPTAASATESAIEDTPAPARPEVDGRTKPKRQPRYHVVLWDDDDHTYQYVVVMLRSLFGHPPSRGYRMAKEMDTQGRVIVLTTTREHAELKRDQIHAFGRDRLLARSKGSMKASIEAEE
notes: also called PS1223 (LIV)

binding result [7]: binds
binding result [8]: no binding
B2: PS1220 (designed binder)
chain: MHSKFSHAGRICGAKFKVGEPIYRCKECSFDDTCVLCVNCFNPKDHLGHHVYTTICTEFNNGECDCGDKTAWNHTLFCKAEEGSAGSAAGSGEFMHSKFSHAGRICGAKFKVGEPIYRCKECSFDDTCVLCVNCFNPKDHLGHHVYTTICTEFNNGECDCGDKTAWNHTLFCKAEEG
notes: also called PS1220 (R)

binding result [9]: no binding
binding result [10]: no binding
PW of R-X [11]: 0.41 s
PW of R-X [12]: < 0.12 s
PW of R-X [13]: 0.47 s
PW of R-X [14]: < 0.06 s
PW of R-X [15]: < 0.06 s
PW of R-X [16]: < 0.12 s
PW of R-X [17]: 0.28 s
PW of R-X [18]: < 0.06 s
PW of R-X [19]: 0.18 s
RS R-X [20]: 25.5 min
RS R-X [21]: 17.3 min
RS R-X [22]: 15.4 min
RS R-X [23]: 9.6 min
B3: PS621 (other)
chain: MHSKFSHAGRICGAKFKVGEPIYRCKECSFDDTCVLCVNCFNPKDHTGHHVYTTICTEFNNGICDCGDKEAWNHTLFCKAEEG
notes: Dye-labeled N-terminal arginine recognizer; also called PS621 (R)
